Test results: paper PMC5653362, “Formation of the chaperonin complex studied by 2D NMR spectroscopy” (PLoS ONE, 2017)

B1: Wild-type E. coli GroES, 15N-labeled form (native heptamer) (natural protein)
chain: MNIRPLHDRVIVKRKEVETKSAGGIVLTGSAAAKSTRGEVLAVGNGRILENGEVKPLDVKVGDIVIFNDGYGVKSEKIDNEEVLIMSESDILAIVEA
modifications: uniformly 15N-labeled
notes: GroES co-chaperonin of Escherichia coli, wild type; concentrations are of the heptamer; also called 15N-labeled GroES; P (protein); source: E. coli BL21(DE3), expression plasmid pETESwild, purified as described previously
B2: single-ring mutant (SR1) of GroEL (R452E, E461A, S463A and V464A) (natural protein, E. coli, UniProt P0A6F5 1-548, looked up)
chain: MAAKDVKFGNDARVKMLRGVNVLADAVKVTLGPKGRNVVLDKSFGAPTITKDGVSVAREIELEDKFENMGAQMVKEVASKANDAAGDGTTTATVLAQAIITEGLKAVAAGMNPMDLKRGIDKAVTAAVEELKALSVPCSDSKAIAQVGTISANSDETVGKLIAEAMDKVGKEGVITVEDGTGLQDELDVVEGMQFDRGYLSPYFINKPETGAVELESPFILLADKKISNIREMLPVLEAVAKAGKPLLIIAEDVEGEALATLVVNTMRGIVKVAAVKAPGFGDRRKAMLQDIATLTGGTVISEEIGMELEKATLEDLGQAKRVVINKDTTTIIDGVGEEAAIQGRVAQIRQQIEEATSDYDREKLQERVAKLAGGVAVIKVGAATEVEMKEKKARVEDALHATRAAVEEGVVAGGGVALIRVASKLADLRGQNEDQNVGIKVALRAMEAPLEQIVLNCGEAPAAVANTVKGGDGNYGYNAATEEYGNMIDMGILDPTKVTRSALQYAASVAGLMITTECMVTDLPKNDAADLGAAGGMGGMGGMGGMM
notes: GroEL chaperonin of Escherichia coli with four mutations at the contact sites between the two rings, forming a single heptameric ring; Non-labeled; heptameric single ring; concentrations are of the heptamer; The PDB entries hold the wild-type double-ring parent; also called L (ligand); heptameric SR1; source: expression plasmid constructed from pEL-WT; expressed and purified as described …

Tests used:
Settings in all cases: both partners purified
[1] = target: B2; experiment: NMR titration; 1H-15N HSQC of 21.4 uM 15N-labeled GroES with 0-42 uM SR1 (separate samples); 25°C; 3.0 mM ADP, 20 mM Tris-HCl, 100 mM KCl, 10 mM MgCl2, pH 7.5, 10% D2O; fit to single-step 1:1 binding (Eq 6)
[2] = target: B2; experiment: NMR titration; 1H-15N HSQC of 21.4 uM 15N-labeled GroES with 0-42 uM SR1 (separate samples); 30°C; 3.0 mM ADP, 20 mM Tris-HCl, 100 mM KCl, 10 mM MgCl2, pH 7.5, 10% D2O; fit to single-step 1:1 binding (Eq 6)
[3] = target: B2; experiment: NMR titration; 1H-15N HSQC of 21.4 uM 15N-labeled GroES with 0-42 uM SR1 (separate samples); 20°C; 3.0 mM ADP, 20 mM Tris-HCl, 100 mM KCl, 10 mM MgCl2, pH 7.5, 10% D2O; fit to single-step 1:1 binding (Eq 6)
[4] = target: B2; experiment: NMR titration; 1H-15N HSQC of 21.4 uM 15N-labeled GroES with 0-42 uM SR1 (separate samples); 25°C; 3 mM ATP, 20 mM Tris-HCl, 100 mM KCl, 10 mM MgCl2, pH 7.5, 10% D2O; fit to single-step 1:1 binding (Eq 6)
[5] = target: B1; experiment: NMR titration; van't Hoff plot of the Kb values from the NMR titrations at 20, 25 and 30°C; 3.0 mM ADP, 100 mM KCl, 10 mM MgCl2, pH 7.5

Ka [1] [M⁻¹]	Ka [2] [M⁻¹]	Ka [3] [M⁻¹]	Ka [4] [M⁻¹]	dH [5] [kJ/mol]	Binder
189000	223000	141000	2.35e+06	–	B1
–	–	–	–	35.1 ± 4.8	B2
